{"source": "paper PMC9316817", "about": "“Brain Delivery of IGF1R5, a Single-Domain Antibody Targeting Insulin-like Growth Factor-1 Receptor” (Pharmaceutics, 2022)", "binders": {"B1": {"name": "IGF1R5-H2, humanized variant of the IGF1R5 single-domain antibody (VHH)", "VHH": "QVQLVESGGGLVQPGGSLRLSCAASGRTIDNYAMAWVRQAPGKGLEWVATIDWGDGGTRYANSVKGRFTISRDNSKNTMYLQMNSLRAEDTAVYYCAMARQSRVNLDVARYDYWGQGTLVTVSS", "notes": "CDRs of m1 grafted on a human VH3 germline framework, 4 back-mutations in the Vernier zone, no camelizing back-mutations in FR2, CDR2 point mutation A57T; Kabat numbering; Changes are stated against the camelid IGF1R5; also called humanized IGF1R5-H2; source: produced and purified as described for the llama sdAbs (TG1 Escherichia coli, HiTrap Chelating HP; preparative SEC just before SPR)"}, "B2": {"name": "IGF1R5 single-domain antibody (camelid VHH against insulin-like growth factor-1 receptor) (VHH)", "VHH": "QVKLEESGGGLVQAGGSLRLSCAASGRTIDNYAMAWSRQAPGKDREFVATIDWGDGGARYANSVKGRFTISRDNAKGTMYLQMNNLEPEDTAVYSCAMARQSRVNLDVARYDYWGQGTQVTVSS", "notes": "Monomeric VHH fraction isolated by SEC was used for SPR; Isolated from a phage display library of a llama immunized with the extracellular domain of human IGF1R (933 amino acids); also called wild-type IGF1R5; IGF1R5 sdAb; source: TG1 Escherichia coli, purified (HiTrap Chelating HP; preparative SEC on Superdex S75 Increase just before SPR)"}}, "key": {"Human IGF1R ectodomain [1]": {"target": "Human IGF1R ectodomain (UniProt P08069)", "sequence (P08069 741-935)": "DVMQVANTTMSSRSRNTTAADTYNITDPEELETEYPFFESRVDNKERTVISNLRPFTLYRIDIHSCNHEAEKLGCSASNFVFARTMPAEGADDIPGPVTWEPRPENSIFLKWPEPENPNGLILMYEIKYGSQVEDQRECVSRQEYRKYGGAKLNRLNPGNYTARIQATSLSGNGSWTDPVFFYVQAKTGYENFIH", "assay": "SPR; acidic pH: HBS-EP MES buffer pH 5.6, 37 °C; IGF1R ectodomains amine coupled on CM5 chips; VHHs in flow, 0.25-10 nM (IGF1R5), 1-50 nM (IGF1R5-H2); 1:1 binding model"}, "[2]": {"target": "mouse IGF1R ectodomain (mouse) (UniProt Q60751)", "sequence (Q60751 742-936)": "as the sequence (P08069 741-935) above, with A19V, L31F, Q185P, G189T, I194M counted along it", "assay": "SPR; acidic pH: HBS-EP MES buffer pH 5.6, 37 °C; IGF1R ectodomains amine coupled on CM5 chips; VHHs in flow, 0.25-10 nM (IGF1R5), 1-50 nM (IGF1R5-H2); 1:1 binding model"}, "Human IGF1R ectodomain [3]": {"target": "Human IGF1R ectodomain (UniProt P08069)", "assay": "SPR; Biacore 3000, multi-cycle kinetics; IGF1R ectodomains amine coupled on CM5 chips (about 1500-2000 RU); VHHs in flow at 20 µL/min, 300 s association, 300 s dissociation; 0.25-10 nM (IGF1R5), 1-25 nM (IGF1R5-H2); HBS-EP pH 7.4, 25 °C; 1:1 binding model"}, "[4]": {"target": "mouse IGF1R ectodomain (mouse) (UniProt Q60751)", "assay": "SPR; Biacore 3000, multi-cycle kinetics; IGF1R ectodomains amine coupled on CM5 chips (about 1500-2000 RU); VHHs in flow at 20 µL/min, 300 s association, 300 s dissociation; 0.25-10 nM (IGF1R5), 1-25 nM (IGF1R5-H2); HBS-EP pH 7.4, 25 °C; 1:1 binding model"}, "[5]": {"target": "T1, rhesus IGF1R ectodomain (aa31-932) (Macaca mulatta, UniProt I2CWY3)", "T1 construct": "insulin-like growth factor-1 receptor, rhesus, ectodomain, aa31-932; source: NRC Montreal", "T1 sequence (I2CWY3 entry or part of it)": "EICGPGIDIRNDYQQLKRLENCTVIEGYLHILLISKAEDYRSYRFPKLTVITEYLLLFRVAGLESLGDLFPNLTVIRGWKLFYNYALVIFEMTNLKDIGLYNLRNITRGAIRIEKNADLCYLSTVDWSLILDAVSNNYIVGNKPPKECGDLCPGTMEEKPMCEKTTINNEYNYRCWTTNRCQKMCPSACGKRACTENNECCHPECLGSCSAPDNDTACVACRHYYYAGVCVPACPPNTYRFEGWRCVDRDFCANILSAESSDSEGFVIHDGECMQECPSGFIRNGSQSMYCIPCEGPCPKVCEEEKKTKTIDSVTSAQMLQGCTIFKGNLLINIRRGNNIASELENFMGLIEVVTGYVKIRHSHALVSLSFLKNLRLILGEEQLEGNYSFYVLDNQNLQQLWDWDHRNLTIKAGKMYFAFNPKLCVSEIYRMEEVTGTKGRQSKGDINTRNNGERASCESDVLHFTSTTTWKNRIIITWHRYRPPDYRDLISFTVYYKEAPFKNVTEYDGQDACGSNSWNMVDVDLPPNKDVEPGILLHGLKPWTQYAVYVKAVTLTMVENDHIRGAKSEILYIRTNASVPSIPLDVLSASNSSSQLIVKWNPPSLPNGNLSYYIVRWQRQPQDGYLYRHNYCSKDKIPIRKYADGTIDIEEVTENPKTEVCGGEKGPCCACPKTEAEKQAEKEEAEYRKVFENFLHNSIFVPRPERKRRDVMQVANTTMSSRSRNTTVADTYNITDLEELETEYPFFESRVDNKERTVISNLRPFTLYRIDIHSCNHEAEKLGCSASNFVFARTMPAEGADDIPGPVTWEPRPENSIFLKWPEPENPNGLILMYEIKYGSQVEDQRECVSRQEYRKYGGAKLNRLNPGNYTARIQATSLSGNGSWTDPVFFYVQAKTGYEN", "assay": "SPR; Biacore T200, single-cycle kinetics (rhesus IGF1R); IGF1R ectodomain amine coupled on CM5 chip; VHHs in flow at 40 µL/min, 180 s association, 600 s dissociation; 0.25-10 nM (IGF1R5), 1-25 nM (IGF1R5-H2); HBS-EP pH 7.4, 25 °C; 1:1 binding model", "settings": "both partners purified"}, "[6]": {"target": "T2, rat IGF1R ectodomain (aa31-936) (Rattus norvegicus, UniProt P24062)", "T2 construct": "insulin-like growth factor-1 receptor, rat, ectodomain, aa31-936; source: NRC Montreal", "T2 sequence (P24062 31-936)": "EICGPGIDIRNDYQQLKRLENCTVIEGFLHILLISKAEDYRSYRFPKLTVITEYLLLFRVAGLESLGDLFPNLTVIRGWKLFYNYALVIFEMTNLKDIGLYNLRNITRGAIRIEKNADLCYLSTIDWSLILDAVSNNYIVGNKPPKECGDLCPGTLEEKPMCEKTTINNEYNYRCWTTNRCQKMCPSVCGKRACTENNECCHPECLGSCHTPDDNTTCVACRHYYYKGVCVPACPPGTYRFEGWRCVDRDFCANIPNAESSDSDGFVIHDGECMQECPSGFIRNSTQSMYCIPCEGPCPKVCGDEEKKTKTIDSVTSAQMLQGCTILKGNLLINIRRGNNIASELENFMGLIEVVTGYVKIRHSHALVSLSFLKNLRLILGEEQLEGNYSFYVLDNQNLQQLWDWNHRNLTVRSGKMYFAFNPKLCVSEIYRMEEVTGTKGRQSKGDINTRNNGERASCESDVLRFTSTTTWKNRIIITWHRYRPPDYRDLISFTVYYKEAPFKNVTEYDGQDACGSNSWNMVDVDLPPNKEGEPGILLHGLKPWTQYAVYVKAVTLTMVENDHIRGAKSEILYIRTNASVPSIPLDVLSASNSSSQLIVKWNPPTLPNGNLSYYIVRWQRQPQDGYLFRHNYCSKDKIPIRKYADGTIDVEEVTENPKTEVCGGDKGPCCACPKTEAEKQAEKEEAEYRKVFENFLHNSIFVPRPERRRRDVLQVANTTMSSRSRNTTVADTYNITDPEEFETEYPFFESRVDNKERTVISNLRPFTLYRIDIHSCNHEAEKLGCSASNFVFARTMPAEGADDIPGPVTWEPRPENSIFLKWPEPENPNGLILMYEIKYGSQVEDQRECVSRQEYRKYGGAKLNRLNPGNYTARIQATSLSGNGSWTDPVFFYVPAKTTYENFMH", "assay": "SPR; Biacore 3000, multi-cycle kinetics; IGF1R ectodomains amine coupled on CM5 chips (about 1500-2000 RU); VHHs in flow at 20 µL/min, 300 s association, 300 s dissociation; 0.25-10 nM (IGF1R5), 1-25 nM (IGF1R5-H2); HBS-EP pH 7.4, 25 °C; 1:1 binding model", "settings": "both partners purified"}}, "data": [{"binder": "B1", "values": [{"measurement": "Kd", "setting": "Human IGF1R ectodomain [1]", "value": 160, "unit": "nM"}, {"measurement": "koff", "setting": "Human IGF1R ectodomain [1]", "value": 0.034, "unit": "s⁻¹"}, {"measurement": "kon", "setting": "Human IGF1R ectodomain [1]", "value": 210000, "unit": "M⁻¹ s⁻¹"}, {"measurement": "Kd", "setting": "[2]", "value": 150, "unit": "nM"}, {"measurement": "koff", "setting": "[2]", "value": 0.043, "unit": "s⁻¹"}, {"measurement": "kon", "setting": "[2]", "value": 290000, "unit": "M⁻¹ s⁻¹"}, {"measurement": "Kd", "setting": "Human IGF1R ectodomain [3]", "value": 7.6, "unit": "nM"}, {"measurement": "koff", "setting": "Human IGF1R ectodomain [3]", "value": 0.0029, "unit": "s⁻¹"}, {"measurement": "kon", "setting": "Human IGF1R ectodomain [3]", "value": 380000, "unit": "M⁻¹ s⁻¹"}, {"measurement": "Kd", "setting": "[4]", "value": 9.1, "unit": "nM"}, {"measurement": "koff", "setting": "[4]", "value": 0.0021, "unit": "s⁻¹"}, {"measurement": "kon", "setting": "[4]", "value": 230000, "unit": "M⁻¹ s⁻¹"}, {"measurement": "Kd", "setting": "[5]", "value": 17, "unit": "nM"}, {"measurement": "koff", "setting": "[5]", "value": 0.0038, "unit": "s⁻¹"}, {"measurement": "kon", "setting": "[5]", "value": 230000, "unit": "M⁻¹ s⁻¹"}, {"measurement": "Kd", "setting": "[6]", "value": 11, "unit": "nM"}, {"measurement": "koff", "setting": "[6]", "value": 0.0026, "unit": "s⁻¹"}, {"measurement": "kon", "setting": "[6]", "value": 230000, "unit": "M⁻¹ s⁻¹"}]}, {"binder": "B2", "values": [{"measurement": "Kd", "setting": "Human IGF1R ectodomain [1]", "value": 4, "unit": "nM"}, {"measurement": "koff", "setting": "Human IGF1R ectodomain [1]", "value": 0.0028, "unit": "s⁻¹"}, {"measurement": "kon", "setting": "Human IGF1R ectodomain [1]", "value": 690000, "unit": "M⁻¹ s⁻¹"}, {"measurement": "Kd", "setting": "[2]", "value": 4.8, "unit": "nM"}, {"measurement": "koff", "setting": "[2]", "value": 0.0028, "unit": "s⁻¹"}, {"measurement": "kon", "setting": "[2]", "value": 590000, "unit": "M⁻¹ s⁻¹"}, {"measurement": "Kd", "setting": "Human IGF1R ectodomain [3]", "value": 0.64, "unit": "nM"}, {"measurement": "koff", "setting": "Human IGF1R ectodomain [3]", "value": 0.00034, "unit": "s⁻¹"}, {"measurement": "kon", "setting": "Human IGF1R ectodomain [3]", "value": 530000, "unit": "M⁻¹ s⁻¹"}, {"measurement": "Kd", "setting": "[4]", "value": 1.1, "unit": "nM"}, {"measurement": "koff", "setting": "[4]", "value": 0.0003, "unit": "s⁻¹"}, {"measurement": "kon", "setting": "[4]", "value": 260000, "unit": "M⁻¹ s⁻¹"}, {"measurement": "Kd", "setting": "[5]", "value": 0.4, "unit": "nM"}, {"measurement": "koff", "setting": "[5]", "value": 0.00059, "unit": "s⁻¹"}, {"measurement": "kon", "setting": "[5]", "value": "1.5e+06", "unit": "M⁻¹ s⁻¹"}, {"measurement": "Kd", "setting": "[6]", "value": 1.1, "unit": "nM"}, {"measurement": "koff", "setting": "[6]", "value": 0.00038, "unit": "s⁻¹"}, {"measurement": "kon", "setting": "[6]", "value": 340000, "unit": "M⁻¹ s⁻¹"}]}]}
